Experimental data taken from patent US20070244048A1 (published 2007).
Like-named read-outs stand apart in the source and are kept apart here. Non-standard residues stand in square brackets, D forms with d. No end group written: not given here. *: point of attachment. Succinimide(1-Et,3-yl) = CCN1C(=O)CC(*)C1=O

Key:
[1] = target: T1, human NMUR1 (human, UniProt Q9HB89 1-426); experiment: cell-based or functional assay
T1 sequence (looked up): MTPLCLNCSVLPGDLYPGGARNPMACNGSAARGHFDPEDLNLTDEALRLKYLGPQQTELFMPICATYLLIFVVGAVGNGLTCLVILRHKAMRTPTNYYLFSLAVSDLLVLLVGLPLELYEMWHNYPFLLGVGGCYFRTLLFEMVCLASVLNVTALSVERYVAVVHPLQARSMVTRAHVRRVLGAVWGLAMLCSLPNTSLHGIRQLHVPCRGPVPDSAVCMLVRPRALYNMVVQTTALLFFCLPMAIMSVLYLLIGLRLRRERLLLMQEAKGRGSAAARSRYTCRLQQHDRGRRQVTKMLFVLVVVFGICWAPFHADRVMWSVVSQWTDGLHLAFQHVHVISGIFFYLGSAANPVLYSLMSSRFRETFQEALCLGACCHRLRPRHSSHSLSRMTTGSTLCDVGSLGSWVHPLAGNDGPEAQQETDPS

[2] = target: T2, human NMUR2 (human, UniProt Q9GZQ4 1-415); experiment: cell-based or functional assay
[3] = target: T2, human NMUR2; experiment: 125I-hNMU-25 displacement, HEK cell membranes
Experimental: Confluent cell monolayers expressing NMU receptors (the HEK cells described above) were harvested with phosphate buffered saline, collected by centrifugation, and resuspended in membrane buffer (50 mM TrisCl pH 7.4, 5 mM MgCl₂, 1× Protease Inhibitor Cocktail, 10 μM phosphoramidon). After the cell pellet was homogenized, the solution was centrifuged at 18,000 rpm for 20 minutes at 4° C. The pellet was resuspended in membrane buffer to yield a final concentration of 0.5-5 μg/μL of membrane and stored at −80° C.
Experiments were performed in assay buffer (25 mM TrisCl, pH 7.4, 10 mM MgCl₂, 2mM EDTA, 1× Protease Inhibitor Cocktail, 100 μg/mL Bacitricin, 10 μM phosphoramidon) in 200 μL volumes in a 96-well format using 2-5 μg of membrane and […] ¹²⁵I-hNMU-25 (about 12,000 cpm/well). For non-specific binding, 1 μM hNMU-25 was added. About 5 μL of peptides were added to measure antagonist activity, and the entire reaction was incubated at room temperature with shaking for 80 minutes. The reaction was terminated by rapid filtration through 0.3% poly-ethylenimine presoaked Millipore 96-well filter plates and washed with ice-cold buffer (5 mM TrisCl pH 7.4, 10 mM MgCl₂, 2.5 mM EDTA, 0.04% Triton X-100). Plates were air-dried overnight at room temperature and recovered radioactivity was determined by standard scintillation counting. IC₅₀ values were determined using GraphPad Prism software.
Concentration-response curves and radioligand-binding data were fitted using Prism (GraphPad Software). Results are summarized below in Tables 8 and 9.

[4] = target: T3, human NMUR1 (human), Q9HB89; experiment: 125I-hNMU-25 displacement, HEK cell membranes; details: remark: other sources report otherwise
T3 chain: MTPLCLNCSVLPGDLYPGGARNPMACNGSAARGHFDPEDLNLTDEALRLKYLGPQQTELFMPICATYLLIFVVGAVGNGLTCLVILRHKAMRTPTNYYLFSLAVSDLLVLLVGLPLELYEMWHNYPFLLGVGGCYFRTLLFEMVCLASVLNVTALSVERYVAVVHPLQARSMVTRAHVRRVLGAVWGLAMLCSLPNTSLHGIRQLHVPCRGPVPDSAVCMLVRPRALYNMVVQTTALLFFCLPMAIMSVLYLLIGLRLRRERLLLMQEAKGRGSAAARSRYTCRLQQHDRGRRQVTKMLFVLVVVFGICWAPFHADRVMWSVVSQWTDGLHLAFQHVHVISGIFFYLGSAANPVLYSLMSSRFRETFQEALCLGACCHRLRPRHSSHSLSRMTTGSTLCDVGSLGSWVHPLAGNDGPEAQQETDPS

[5] = target: T1, human NMUR1; experiment: cell-based or functional assay; remark: listed apart in the source
[6] = target: T2, human NMUR2; experiment: cell-based or functional assay; remark: listed apart in the source
[7] = target: T4, mouse NMUR1-ATG (mouse, UniProt O55040 1-428); experiment: cell-based or functional assay
T4 sequence (looked up): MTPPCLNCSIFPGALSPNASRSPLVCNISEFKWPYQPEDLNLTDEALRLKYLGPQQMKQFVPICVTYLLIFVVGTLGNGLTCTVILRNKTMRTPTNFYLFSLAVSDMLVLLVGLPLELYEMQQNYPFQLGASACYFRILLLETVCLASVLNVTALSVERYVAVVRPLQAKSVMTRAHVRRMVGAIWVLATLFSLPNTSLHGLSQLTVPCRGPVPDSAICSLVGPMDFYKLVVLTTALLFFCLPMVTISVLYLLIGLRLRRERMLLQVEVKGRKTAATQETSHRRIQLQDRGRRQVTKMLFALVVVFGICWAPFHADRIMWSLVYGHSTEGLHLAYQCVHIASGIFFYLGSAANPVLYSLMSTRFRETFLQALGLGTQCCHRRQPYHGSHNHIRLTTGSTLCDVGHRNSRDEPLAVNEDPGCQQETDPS

[8] = target: T5, mouse NMUR1-CTG (mouse, UniProt O55040 1-428); experiment: cell-based or functional assay
T5 sequence (looked up): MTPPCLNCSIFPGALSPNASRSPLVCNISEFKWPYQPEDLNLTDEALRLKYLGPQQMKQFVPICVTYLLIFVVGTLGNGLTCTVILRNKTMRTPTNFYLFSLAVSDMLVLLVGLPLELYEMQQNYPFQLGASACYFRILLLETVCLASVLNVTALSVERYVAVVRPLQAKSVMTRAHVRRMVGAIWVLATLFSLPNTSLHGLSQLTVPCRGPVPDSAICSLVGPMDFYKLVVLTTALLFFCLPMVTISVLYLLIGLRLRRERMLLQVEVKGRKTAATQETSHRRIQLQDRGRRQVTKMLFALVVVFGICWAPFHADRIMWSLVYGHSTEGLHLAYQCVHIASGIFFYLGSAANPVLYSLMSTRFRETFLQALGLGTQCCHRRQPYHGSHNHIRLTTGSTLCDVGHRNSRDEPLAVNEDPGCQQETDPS

[9] = target: T6, mouse NMUR2 (mouse, UniProt Q8BZ39 1-395); experiment: cell-based or functional assay
[10] = target: T7, rat NMUR1-ATG (rat, UniProt Q9JJI5 1-425); experiment: cell-based or functional assay
T7 sequence (looked up): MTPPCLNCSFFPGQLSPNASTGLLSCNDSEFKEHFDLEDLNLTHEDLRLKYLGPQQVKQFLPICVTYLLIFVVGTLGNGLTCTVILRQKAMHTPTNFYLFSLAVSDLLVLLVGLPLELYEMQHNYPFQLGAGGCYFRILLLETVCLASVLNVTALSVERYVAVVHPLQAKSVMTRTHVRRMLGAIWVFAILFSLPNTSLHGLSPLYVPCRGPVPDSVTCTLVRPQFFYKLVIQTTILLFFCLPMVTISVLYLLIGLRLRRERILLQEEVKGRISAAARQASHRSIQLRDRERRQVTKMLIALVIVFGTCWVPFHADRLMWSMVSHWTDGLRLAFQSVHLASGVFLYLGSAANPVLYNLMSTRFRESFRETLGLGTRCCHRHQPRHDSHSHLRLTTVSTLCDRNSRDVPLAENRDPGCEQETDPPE

[11] = target: T8, rat NMUR1-TTG (rat, UniProt Q9JJI5 1-425); experiment: cell-based or functional assay
T8 sequence (looked up): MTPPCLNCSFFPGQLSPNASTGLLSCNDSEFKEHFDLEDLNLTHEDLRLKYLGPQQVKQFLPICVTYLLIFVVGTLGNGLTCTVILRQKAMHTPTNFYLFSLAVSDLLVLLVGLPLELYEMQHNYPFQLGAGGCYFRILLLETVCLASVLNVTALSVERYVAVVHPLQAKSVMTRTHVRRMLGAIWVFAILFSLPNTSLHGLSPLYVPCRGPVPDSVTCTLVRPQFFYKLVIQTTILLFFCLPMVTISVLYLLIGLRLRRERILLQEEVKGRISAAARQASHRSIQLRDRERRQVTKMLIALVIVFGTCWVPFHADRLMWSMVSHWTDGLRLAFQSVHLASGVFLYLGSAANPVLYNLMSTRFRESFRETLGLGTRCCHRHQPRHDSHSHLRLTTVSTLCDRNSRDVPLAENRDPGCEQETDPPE

[12] = target: T9, rat NMUR2 (rat, UniProt Q9ESQ4 1-395); experiment: cell-based or functional assay
[13] = target: T1, human NMUR1; experiment: cell-based or functional assay; remark: listed apart in the source
[14] = target: T2, human NMUR2; experiment: cell-based or functional assay; remark: listed apart in the source
[15] = target: T4, mouse NMUR1-ATG; experiment: cell-based or functional assay; remark: listed apart in the source
[16] = target: T5, mouse NMUR1-CTG; experiment: cell-based or functional assay; remark: listed apart in the source
[17] = target: T6, mouse NMUR2; experiment: cell-based or functional assay; remark: listed apart in the source
[18] = target: T7, rat NMUR1-ATG; experiment: cell-based or functional assay; remark: listed apart in the source
[19] = target: T8, rat NMUR1-TTG; experiment: cell-based or functional assay; remark: listed apart in the source
[20] = target: T9, rat NMUR2; experiment: cell-based or functional assay; remark: listed apart in the source
[21] = target: T1, human NMUR1; experiment: 125I-hNMU-25 displacement, cell membranes
[22] = target: T2, human NMUR2; experiment: 125I-hNMU-25 displacement, cell membranes
[23] = target: T4, mouse NMUR1-ATG; experiment: 125I-hNMU-25 displacement, cell membranes
[24] = target: T5, mouse NMUR1-CTG; experiment: 125I-hNMU-25 displacement, cell membranes
[25] = target: T6, mouse NMUR2; experiment: 125I-hNMU-25 displacement, cell membranes
[26] = target: T7, rat NMUR1-ATG; experiment: 125I-hNMU-25 displacement, cell membranes
[27] = target: T8, rat NMUR1-TTG; experiment: 125I-hNMU-25 displacement, cell membranes
[28] = target: T9, rat NMUR2; experiment: 125I-hNMU-25 displacement, cell membranes

T2 sequence (Q9GZQ4 whole entry): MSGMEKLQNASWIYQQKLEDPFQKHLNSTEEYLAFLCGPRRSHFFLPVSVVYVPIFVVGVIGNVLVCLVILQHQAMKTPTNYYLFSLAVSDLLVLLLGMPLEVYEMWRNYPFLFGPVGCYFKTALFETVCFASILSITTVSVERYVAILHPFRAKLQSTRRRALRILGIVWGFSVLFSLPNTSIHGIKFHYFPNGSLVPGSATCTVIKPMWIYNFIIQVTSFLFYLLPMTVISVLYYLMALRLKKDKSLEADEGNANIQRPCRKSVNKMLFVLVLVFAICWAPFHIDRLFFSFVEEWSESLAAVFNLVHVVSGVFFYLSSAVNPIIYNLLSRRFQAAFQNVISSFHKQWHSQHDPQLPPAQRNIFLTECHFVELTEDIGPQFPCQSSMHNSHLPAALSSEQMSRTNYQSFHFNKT
T6 sequence (Q8BZ39 whole entry): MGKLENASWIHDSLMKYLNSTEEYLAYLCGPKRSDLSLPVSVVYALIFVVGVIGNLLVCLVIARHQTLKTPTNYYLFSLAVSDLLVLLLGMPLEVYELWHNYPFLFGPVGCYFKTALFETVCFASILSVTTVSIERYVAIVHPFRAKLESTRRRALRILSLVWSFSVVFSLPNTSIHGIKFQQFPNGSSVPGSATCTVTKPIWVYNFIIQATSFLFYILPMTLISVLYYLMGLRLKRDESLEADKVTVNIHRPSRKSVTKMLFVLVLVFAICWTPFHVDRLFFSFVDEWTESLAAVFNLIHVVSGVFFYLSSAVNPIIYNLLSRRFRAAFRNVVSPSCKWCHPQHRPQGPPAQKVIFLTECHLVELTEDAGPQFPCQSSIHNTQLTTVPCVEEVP
T9 sequence (Q9ESQ4 whole entry): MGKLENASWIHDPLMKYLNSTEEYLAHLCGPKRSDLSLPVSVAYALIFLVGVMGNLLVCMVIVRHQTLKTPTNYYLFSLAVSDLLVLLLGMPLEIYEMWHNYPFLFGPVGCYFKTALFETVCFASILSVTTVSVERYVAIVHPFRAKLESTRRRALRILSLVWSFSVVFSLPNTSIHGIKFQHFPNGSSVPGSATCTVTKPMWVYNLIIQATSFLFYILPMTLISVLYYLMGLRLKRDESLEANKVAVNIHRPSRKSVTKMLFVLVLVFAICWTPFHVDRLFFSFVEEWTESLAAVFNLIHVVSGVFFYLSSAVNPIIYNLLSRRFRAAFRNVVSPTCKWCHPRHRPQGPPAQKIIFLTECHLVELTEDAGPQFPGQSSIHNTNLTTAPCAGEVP

B1: neuromedin U receptor agonist L (peptide)
peptide: FWLFRARN-NH2
% activity [1]: 74%
EC50 [1]: > 1000 nM
% activity [2]: 100%
EC50 [2]: 6.2 nM
% activity (binding) [3]: 100%
IC50 [3]: 37 nM
% activity (binding) [4]: 0%

B2: NMU13 (peptide)
peptide: Ac-C(Succinimide(1-Et,3-yl))FRVDEEFQSPFASQSRGYF[dA]WRPRN-NH2
SMILES: CCN1C(=O)CC(SC[C@H](NC(C)=O)C(=O)N[C@@H](Cc2ccccc2)C(=O)N[C@@H](CCCNC(=N)N)C(=O)N[C@H](C(=O)N[C@@H](CC(=O)O)C(=O)N[C@@H](CCC(=O)O)C(=O)N[C@@H](CCC(=O)O)C(=O)N[C@@H](Cc2ccccc2)C(=O)N[C@@H](CCC(N)=O)C(=O)N[C@@H](CO)C(=O)N2CCC[C@H]2C(=O)N[C@@H](Cc2ccccc2)C(=O)N[C@@H](C)C(=O)N[C@@H](CO)C(=O)N[C@@H](CCC(N)=O)C(=O)N[C@@H](CO)C(=O)N[C@@H](CCCNC(=N)N)C(=O)NCC(=O)N[C@@H](Cc2ccc(O)cc2)C(=O)N[C@@H](Cc2ccccc2)C(=O)N[C@H](C)C(=O)N[C@@H](Cc2c[nH]c3ccccc23)C(=O)N[C@@H](CCCNC(=N)N)C(=O)N2CCC[C@H]2C(=O)N[C@@H](CCCNC(=N)N)C(=O)N[C@@H](CC(N)=O)C(N)=O)C(C)C)C1=O
notes: also called NMUR1 selective peptide NMU13
% Activity (FLIPR) [5]: 100%
EC50 (FLIPR) [5]: 4.8 nM
% Activity (FLIPR) [6]: 0%
EC50 (FLIPR) [6]: > 1000 nM
% Activity (FLIPR) [7]: 98.6%
EC50 (FLIPR) [7]: 35.8 nM
% Activity (FLIPR) [8]: 73.6%
EC50 (FLIPR) [8]: 142 nM
% Activity (FLIPR) [9]: 0%
EC50 (FLIPR) [9]: > 1000 nM
% Activity (FLIPR) [10]: 100%
EC50 (FLIPR) [10]: 9.5 nM
% Activity (FLIPR) [11]: 94.6%
EC50 (FLIPR) [11]: 115 nM
% Activity (FLIPR) [12]: 0%
EC50 (FLIPR) [12]: > 1000 nM
% activity [13]: 91%
IC50 (nM), functional [13]: 1.7 nM
% activity [14]: 0%
IC50 (nM), functional [14]: > 1000 nM
% activity [15]: 96%
IC50 (nM), functional [15]: 7.8 nM
% activity [16]: 88%
IC50 (nM), functional [16]: 14 nM
% activity [17]: 27%
IC50 (nM), functional [17]: > 1000 nM
% activity [18]: 92%
IC50 (nM), functional [18]: 15.8 nM
% activity [19]: 94%
IC50 (nM), functional [19]: 107 nM
% activity [20]: 24%
IC50 (nM), functional [20]: > 1000 nM
% inhibition of NMU-25 binding [21]: 100%
IC50 [21]: 4.3 nM
% inhibition of NMU-25 binding [22]: 48%
% inhibition of NMU-25 binding [23]: 100%
IC50 [23]: 5.4 nM
% inhibition of NMU-25 binding [24]: 100%
IC50 [24]: 3.5 nM
% inhibition of NMU-25 binding [25]: 30%
% inhibition of NMU-25 binding [26]: 100%
IC50 [26]: 1.6 nM
% inhibition of NMU-25 binding [27]: 100%
IC50 [27]: 3.24 nM
% inhibition of NMU-25 binding [28]: 0%
